Experimental data: US20240392020A1 (JIANGSU HENGRUI PHARMACEUTICALS, published 2024)

T1: hP40 (human, UniProt P29460 23-328)
T1 construct: bought
T1 sequence (looked up): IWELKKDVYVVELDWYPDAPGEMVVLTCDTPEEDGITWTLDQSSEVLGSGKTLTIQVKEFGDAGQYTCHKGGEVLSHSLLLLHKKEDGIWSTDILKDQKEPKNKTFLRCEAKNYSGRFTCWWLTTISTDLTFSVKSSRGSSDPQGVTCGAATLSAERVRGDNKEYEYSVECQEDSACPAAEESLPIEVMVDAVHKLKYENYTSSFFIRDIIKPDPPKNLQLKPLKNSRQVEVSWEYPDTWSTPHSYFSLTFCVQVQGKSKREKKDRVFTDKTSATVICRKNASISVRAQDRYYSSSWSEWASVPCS

T2: CEA on MKN45 cells (UniProt P06731 35-685)
T2 construct: whole, on cells
T2 sequence (looked up): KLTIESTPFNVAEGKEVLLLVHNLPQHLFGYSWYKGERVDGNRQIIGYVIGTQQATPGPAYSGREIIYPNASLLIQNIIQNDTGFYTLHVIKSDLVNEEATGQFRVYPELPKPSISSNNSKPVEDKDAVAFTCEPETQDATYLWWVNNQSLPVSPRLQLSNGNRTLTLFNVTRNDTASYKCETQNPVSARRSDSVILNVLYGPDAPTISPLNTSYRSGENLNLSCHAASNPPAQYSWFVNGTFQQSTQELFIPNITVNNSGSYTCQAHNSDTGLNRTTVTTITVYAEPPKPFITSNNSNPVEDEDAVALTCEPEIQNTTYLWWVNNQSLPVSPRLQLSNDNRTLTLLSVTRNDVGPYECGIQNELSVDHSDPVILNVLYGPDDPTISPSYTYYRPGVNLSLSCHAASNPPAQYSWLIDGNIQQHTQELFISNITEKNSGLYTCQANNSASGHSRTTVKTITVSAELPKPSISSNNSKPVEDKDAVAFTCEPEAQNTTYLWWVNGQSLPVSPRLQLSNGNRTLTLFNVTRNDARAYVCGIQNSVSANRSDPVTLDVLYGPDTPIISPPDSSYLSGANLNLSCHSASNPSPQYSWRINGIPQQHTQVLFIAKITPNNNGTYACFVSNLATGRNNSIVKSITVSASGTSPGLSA

B1: U7 (antibody)
heavy: not shown
light: DIQMTQSPSSLSASVGDRVTITCRASQGISSWLAWYQQKPEKAPKSLIYAASSLQSGVPSRFSGSGSGTDFTLTISSLQPEDFATYYCQQYNIYPYTFGQGTKLEIKSGAPRFLTRPLAFVVSVGKDATLSSQIVGNPTPQVSWEKDQLPVTAGARFRLAQDGDLYRLKILDLTLSDSGQYVSRARNAIGEAFACVGLEVGAEA
B2: U1 (antibody)
heavy: not shown
light: DIQMTQSPSSLSASVGDRVTITCRASQGISSWLAWYQQKPEKAPKSLIYAASSLQSGVPSRFSGSGSGTDFTLTISSLQPEDFATYYCQQYNIYPYTFGQGTKLEIKSGAPRFLTRPLAFVVSVGKDATLSSQIVGNPTPQVSWEKDQQPVAAGARFRLAQDGDLYRLKILDLALGDSGQYVSRARNAIGEAFACVGLQVDAEA
B3: U5 (antibody)
heavy: not shown
light: DIQMTQSPSSLSASVGDRVTITCRASQGISSWLAWYQQKPEKAPKSLIYAASSLQSGVPSRFSGSGSGTDFTLTISSLQPEDFATYYCQQYNIYPYTFGQGTKLEIKSGAPRFLTRPLAFVVSVGKDATLSSQIVGNPTPQVSWEKDQLPVTAGARFRLAQDGDLYRLKILDLTLSDSGQYVSRARNAIGEAFACVGLEVGAEA
B4: U6 (antibody)
heavy: not shown
light: DIQMTQSPSSLSASVGDRVTITCRASQGISSWLAWYQQKPEKAPKSLIYAASSLQSGVPSRFSGSGSGTDFTLTISSLQPEDFATYYCQQYNIYPYTFGQGTKLEIKSGAPRFLTRPLAFVVSVGKDATLSSQIVGNPTPQVSWEKDQLPVTAGARFRLAQDGDLYRLKILDLTLSDSGQYVSRARNAIGEAFACVGLEVGAEA
B5: U8 (antibody)
heavy: not shown
light: DIQMTQSPSSLSASVGDRVTITCRASQGISSWLAWYQQKPEKAPKSLIYAASSLQSGVPSRFSGSGSGTDFTLTISSLQPEDFATYYCQQYNIYPYTFGQGTKLEIKSGAPRFLTRPLSYVVSVGKDASLSSQIVGNPTPQVSWEKDQLPVTAGARFRLAQDGDLYRLKILDLQLSDSGQYVSRARNAIGEAFACVGLEVGAEA
B6: U2 (antibody)
heavy: not shown
light: DIQMTQSPSSLSASVGDRVTITCRASQGISSWLAWYQQKPEKAPKSLIYAASSLQSGVPSRFSGSGSGTDFTLTISSLQPEDFATYYCQQYNIYPYTFGQGTKLEIKSGAPRFLTRPKSYTVSVGKDASLSSQIVGNPTPQVSWEKDQQPVAAGARFRLAQDGDLYRLKILDLALGDSGQYVSRARNAIGEAFACVGLQVDAEA
B7: U3 (antibody)
heavy: not shown
light: DIQMTQSPSSLSASVGDRVTITCRASQGISSWLAWYQQKPEKAPKSLIYAASSLQSGVPSRFSGSGSGTDFTLTISSLQPEDFATYYCQQYNIYPYTFGQGTKLEIKSEAPRFLTRPLAFVVSEGKDATLSSQIVGDPPPEVTWEKDQQPITAGARFRLAQDGDVYRLEILDLQLSDSGQYVSRARNAIGEAFACVGLQVDAEG
B8: U4 (antibody)
heavy: not shown
light: DIQMTQSPSSLSASVGDRVTITCRASQGISSWLAWYQQKPEKAPKSLIYAASSLQSGVPSRFSGSGSGTDFTLTISSLQPEDFATYYCQQYNIYPYTFGQGTKLEIKSGAPRFLTRPLAFVVSVGKDATLSSQIVGNPTPQVSWEKDKQPVTAGARFRLAQDGDLYRLKILDLQLSDSGQYVSRARNAIGEAFACLGLQVDAEA
B9: N1 (antibody)
heavy: not shown
light: EIVLTQSPGTLSLSPGERATLSCRASQNINNRFLAWYQQRPGQAPRLLIYAASSRATGVPDRFSGSGSGTDFTLTISRLEAEDFAMYHCQQYGSFPRTFGQGTMVDIKGILQPDPPANITVTAVARNPRWLSVTWQDPHSWNSSFYRLRFELRYRAERSKTFTTWMVKDLQHHCVIHDAWSGLRHVVQLRAQEEFGQGEWSEWSPEAMGTPW
B10: N2 (antibody)
heavy: not shown
light: EIVLTQSPGTLSLSPGERATLSCRASQNINNRFLAWYQQRPGQAPRLLIYAASSRATGVPDRFSGSGSGTDFTLTISRLEAEDFAMYHCQQYGSFPRTFGQGTMVDIKFDPVYKVKPNPPHNLSVINSEELSSILKLTWTNPSIKSVIILKYNIQYRTKDASTWSQIPPEDTASTRSSFTVQDLKPFTEYVFRIRCMKEDGKGYWSDWSEEASGIT
B11: N5 (antibody)
heavy: not shown
light: EIVLTQSPGTLSLSPGERATLSCRASQNINNRFLAWYQQRPGQAPRLLIYAASSRATGVPDRFSGSGSGTDFTLTISRLEAEDFAMYHCQQYGSFPRTFGQGTMVDIKGIPPKIEALPSDISIDEGKVLTVACAFTGEPTPEVTWSCGGRKIHSQEQGRFHIENTDDLTTLIIMDVQKQDGGLYTLSLGNEFGSDSATVNIHIRSI
B12: C0 (antibody, human IgG1, kappa)
heavy: not shown
light: DIVMTQSPDSLAVSLGERATINCRASESVSIIGTNLIHWYQQKPGQPPKLLIYHASNLETGVPDRFSGSGSGTDFTLTISSLQAEDVAVYYCLQSRKIPYTFGGGTKVEIKRTVAAPSVFIFPPSDEQLKSGTASVVCLLNNFYPREAKVQWKVDNALQSGNSQESVTEQDSKDSTYSLSSTLTLSKADYEKHKVYACEVTHQGLSSPVTKSFNRGEC
B13: C1 (antibody)
heavy: not shown
light: DIVMTQSPDSLAVSLGERATINCRASESVSIIGTNLIHWYQQKPGQPPKLLIYHASNLETGVPDRFSGSGSGTDFTLTISSLQAEDVAVYYCLQSRKIPYTFGGGTKVEIKGIPPKIEALPSDISIDEGKVLTVACAFTGEPTPEVTWSCGGRKIHSQEQGRFHIENTDDLTTLIIMDVQKQDGGLYTLSLGNEFGSDSATVNIHIRSI
B14: C2 (antibody)
heavy: not shown
light: DIVMTQSPDSLAVSLGERATINCRASESVSIIGTNLIHWYQQKPGQPPKLLIYHASNLETGVPDRFSGSGSGTDFTLTISSLQAEDVAVYYCLQSRKIPYTFGGGTKVEIKGIPPKIEALPSDISIDEGKVLTVACAFTGEPTPEVTWSCGGRKIHSQEQGRFHIENTDDLTTLIIMDVQKQDGGLYTLSLGNEFGSDSATVNIHIRSI
B15: HJ-3 (bispecific antibody, human IgG1, kappa, L234A L235A)
heavy 1: not shown
light 1: DIQMTQSPSSVSASVGDRVTITCRASQDIANYLSWYQQKPGKSPKLLIYGTSNLEVGVPSRFSGSRSGTDFTLTISSLQPEDFATYYCLQDKEFPRTFGGGTKVEIKGGGGSSGAPRFLTRPLAFVVSVGKDATLSSQIVGNPTPQVSWEKDKQPVTAGARFRLAQDGDLYRLKILDLQLSDSGQYVSRARNAIGEAFACLGLQVDAEA
heavy 2: EVQLVQSGAEVKKPGSSVKVSCKASGYTFSNYLIEWVRQAPGQGLEWIGVIDPGVGDTNYNENFKGRATLTADKSTSTAYIELSSLRSEDTAVYYCAREDNTGTAFDYWGQGTTVTVSSASTKGPSVFPLAPSSKSTSGGTAALGCLVKDYFPEPVTVSWNSGALTSGVHTFPAVLQSSGLYSLSSVVTVPSSSLGTQTYICNVNHKPSNTKVDKKVEPKSCDKTHTCPPCPAPEAAGGPSVFLFPPKPKDTLMISRTPEVTCVVVDVSHEDPEVKFNWYVDGVEVHNAKTKPREEQYNSTYRVVSVLTVLHQDWLNGKEYKCKVSNKALPAPIEKTISKAKGQPREPQVCTLPPSREEMTKNQVSLSCAVKGFYPSDIAVEWESNGQPENNYKTTPPVLDSDGSFFLVSKLTVDKSRWQQGNVFSCSVMHEALHNHYTQKSLSLSPGKDYKDDDDK
light 2: SIVMTQTPLSLSVTPGQPASISCKASQSVSSDVTWYLQKPGQSPQLLIYYVSEHYTGVPDRFSGSGYGTDFTLKISRVEAEDVGVYYCQQHHRFPLTFGQGTKLEIKRTVAAPSVFIFPPSDEQLKSGTASVVCLLNNFYPREAKVQWKVDNALQSGNSQESVTEQDSKDSTYSLSSTLTLSKADYEKHKVYACEVTHQGLSSPVTKSFNRGEC

Target: T1, hP40
Test: ELISA

Compared with B1, B2 is 2.3-fold lower in EC50: 0.07 nM for the first, 0.03 nM for the second. The second is the more potent here.

B3 and B4 are the same in EC50: 0.11 nM for the first, 0.11 nM for the second.

Compared with B5, B6 is 2.3-fold lower in EC50: 0.16 nM for the first, 0.07 nM for the second. The second is the more potent here.

Compared with B7, B8 is 3-fold higher in EC50: 0.02 nM for the first, 0.06 nM for the second.

Target: T2, CEA on MKN45 cells
Test: FACS, MKN45 cells

Compared with B9, B10 is 1.6-fold lower in EC50: 1230 nM for the first, 766 nM for the second.

B11 and B12 are within 1.5-fold of each other in EC50: 5.24 nM for the first, 5.81 nM for the second.

B13 and B14 are within 1.5-fold of each other in EC50: 17.7 nM for the first, 16.5 nM for the second.

Target: T3, hIL-5 (human, UniProt P05113 20-134)
T3 construct: bought
Test: ELISA
Experimental: (§1) For an antibody targeting a soluble protein, the binding activity of the antibody against the soluble protein was detected by ELISA. […] After the blocking was completed, the blocking solution was discarded; and the plate was washed 3 times with a PBST buffer (pH 7.4, PBS containing 0.1% tween-20). 100 μL of the antibody solution diluted in a gradient was added to each well, and the mixture was incubated at 37° C. for 1 h. After the incubation was completed, the plate was washed 3 times with PBST.

B15 gave an EC50 of 17.4 nM.

Target: T4, hTSLP (human, UniProt Q969D9 29-159)
T4 construct: bought
Test: ELISA
Experimental: as §1

In the case of B15, the EC50 is reported as 3.23 nM.
